Experimental data published in patent publication US12404345B2, “Humanized antibodies against iRHOM2” (SCIRHOM GMBH, priority 2021, dated 2025).

T1: human iRhom1 (Homo sapiens, UniProt Q96CC6)
T1 construct: expressed in transfected cells; host or cells: immortalized iRhom1/2-/- DKO mouse embryonic fibroblasts, pMSCV retroviral infection
T1 sequence (Q96CC6 1-855): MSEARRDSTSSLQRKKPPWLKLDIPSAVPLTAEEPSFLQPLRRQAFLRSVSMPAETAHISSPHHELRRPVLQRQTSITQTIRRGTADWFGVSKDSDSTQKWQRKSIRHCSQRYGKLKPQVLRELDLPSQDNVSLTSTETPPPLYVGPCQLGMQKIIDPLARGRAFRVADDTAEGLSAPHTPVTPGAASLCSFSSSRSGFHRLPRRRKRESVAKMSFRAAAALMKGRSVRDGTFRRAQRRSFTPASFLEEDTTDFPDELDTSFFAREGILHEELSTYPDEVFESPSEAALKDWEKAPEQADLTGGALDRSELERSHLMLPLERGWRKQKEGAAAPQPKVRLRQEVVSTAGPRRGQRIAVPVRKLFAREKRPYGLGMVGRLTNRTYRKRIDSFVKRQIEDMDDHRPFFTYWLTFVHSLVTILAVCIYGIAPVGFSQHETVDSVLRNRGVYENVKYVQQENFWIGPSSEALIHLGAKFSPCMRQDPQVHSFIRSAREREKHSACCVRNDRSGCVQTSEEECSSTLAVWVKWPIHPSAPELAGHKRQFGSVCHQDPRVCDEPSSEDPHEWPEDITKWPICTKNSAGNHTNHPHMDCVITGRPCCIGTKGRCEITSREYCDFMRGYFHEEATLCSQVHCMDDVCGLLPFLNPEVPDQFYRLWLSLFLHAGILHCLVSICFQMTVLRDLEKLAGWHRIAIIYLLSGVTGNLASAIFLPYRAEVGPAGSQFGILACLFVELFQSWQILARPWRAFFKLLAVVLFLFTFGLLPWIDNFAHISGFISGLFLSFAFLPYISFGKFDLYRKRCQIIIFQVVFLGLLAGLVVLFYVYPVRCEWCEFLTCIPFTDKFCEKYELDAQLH


Target: T1, human iRhom1
Assay: FACS binding specificity on MEF-DKO-hiR1-FL-WT-T7 cells
Conditions: antibody at 3 μg/ml
Procedure: Due to the sequence homology of the human iRhom2 protein versus its closely related family member human iRhom1 (referring to the NCBI reference sequence NP_078875.4. for human iRhom2 and the NCBI reference sequence NP_071895.3 for human iRhom1, the amino acid sequence identity for the extracellular loops 1, 2, 3 and the C-terminal tail of human iRhom2 versus human iRhom1 are calculated as 67.4%, 100.00%, 80.00% and 63.64%, respectively), the binding specificity of the humanized antibodies 16-B-03, 16-B-05, 16-B-07, 23-B-04, 42-B-02, 42-B-04 of the invention for human iRhom2 versus human iRhom1 was assessed as a next step. For this purpose, iRhom1/2−/− DKO MEFs stably expressing a tagged form of human iRhom1 were generated.
In brief, on day 1, Phoenix-ECO cells (American Type Culture Collection, USA) were seeded on 6-well tissue culture plates (Greiner, Germany) in standard growth medium at 8×10^5 cells per well and kept overnight at 37° C., 5% CO2. On day 2, the medium was replaced by fresh medium supplemented with chloroquine (Sigma-Aldrich, USA) at a final concentration of 25 μM. Applying the calcium phosphate method, cells were transfected with 2 μg/ml of pMSCV-hiR1-FL-WT-T7 (SEQ ID NO 50) encoding human iRhom1 full length wild type C-terminally tagged with 3 consecutive copies of the T7 epitope, and were kept at 37° C., 5% CO2. After 7 hours, the transfections were stopped by replacing cell supernatants with standard growth medium lacking chloroquine, and cells were incubated at 37° C., 5% CO2 to allow virus production overnight. In parallel, immortalized iRhom1/2−/− DKO MEFs as target cells for retroviral infection were seeded on 6-well tissue culture plates (Greiner, Germany) in standard growth medium at 1×10^5 cells per well and were also kept overnight at 37° C., 5% CO2. On day 3, the supernatants of Phoenix-ECO cells releasing pMSCV-hiR1-FL-WT-T7 ecotrophic virus were collected, filtered with 0.45 μm CA filters, and supplemented with 4 μg/ml of polybrene (Sigma-Aldrich, USA). Upon removal of medium from the immortalized iRhom1/2−/− DKO MEFs, these supernatants were added to the target cells for 4 hours at 37° C., 5% CO2 for first infection. Simultaneously, Phoenix-ECO cells were re-incubated with fresh medium, which, after another 4 hours, was filtered and used for the second infection of the respective target cell populations, again in the presence of 4 μg/ml of polybrene. Likewise, a third, but overnight infection cycle was performed. On day 4, virus containing cell supernatants were replaced by fresh standard growth medium. From day 5 onwards, cells were grown in the presence of 2 mg/ml of geneticin (G418, Thermo Fisher Scientific, USA) for the selection of immortalized MEF-DKO-hiR1-FL-WT-T7 cells stably expressing human iRhom1 full length wild type C-terminally tagged with 3 consecutive copies of the T7 epitope. Upon propagation, cells were stocked for future usage.
In brief, in addition to immortalized MEF-DKO-EV control cells and MEF-DKO-hiR2-FL-WT-T7 cells (as already described in example 3), MEF-DKO-hiR1-FL-WT-T7 cells were harvested with 10 mM EDTA in PBS, washed and resuspended in FACS buffer (PBS, 3% FBS, 0.05% sodium azide), and seeded in Nunc U-bottom 96-well plates (Thermo Fisher Scientific, USA) at approximately 3×10^5 cells per well. To pellet cells and remove supernatants, the plates were centrifuged at 1,500 rpm and 4° C. for 3 minutes. For primary staining, cells were resuspended in 100 μl per well of either FACS buffer alone (controls), mouse monoclonal anti-T7 IgG (Merck Millipore, USA) at 3 μg/ml FACS buffer or the humanized antibodies 16-B-03, 16-B-05, 16-B-07, 23-B-04, 42-B-02, 42-B-04 of the invention also at 3 μg/ml FACS buffer and incubated on ice for 1 hour. Afterwards, plates were centrifuged at 1,500 rpm and 4° C. for 3 minutes and washed twice with 200 μl per well of FACS buffer. […]

Row | Molecule | binding to human iRhom1 on MEF-DKO-hiR1-FL-WT-T7 cells
1 | 23-B-04: humanized antibody binding human iRhom2; HCVD SEQ ID NO 25, LCVD SEQ ID NO 29 (antibody, V domains shown, antibody sequences) VH: QVTLRESGPALVKPTQTLTLTCTFSGFSLSTFGMGVGWIRQPPGKALEWLAHIWWDDEKYYNSALKSRLTISKDTSKNQVVLTITNMDPVDTATYYCARISNYGSNYWYFNVWGQGTLVTVSS VL: AIQLTQSPSSLSASVGDRVTITCRASSSVSYMYWYQQKPGKAPKVLIYDTSNLASGVPSRFSGSGSGTDYTLTISSLQPEDFATYYCQQWNAYPLTFGQGTKLEIK | none of these humanized antibodies of the invention recognizes human iRhom1
2 | 42-B-02: humanized antibody binding human iRhom2; HCVD SEQ ID NO 33, LCVD SEQ ID NO 37 (antibody, V domains shown, antibody sequences) VH: QVTLRESGPALVKPTQTLTLTCTFSGFSLSTFGRGVGWIRQPPGKALEWLAHIWWDDEKYYNSALKSRLTISKDTSKNQVVLTITNMDPVDTATYYCARIQNYGSNYWYFDVWGQGTLVTVSS VL: AIQLTQSPSSLSASVGDRVTITCRASSRISYMFWYQQKPGKAPKVLIYDTSNLASGVPSRFSGSGSGTDYTLTISSLQPEDFATYYCQQWNSYPLTFGQGTKLEIK | none of these humanized antibodies of the invention recognizes human iRhom1
3 | 42-B-04: humanized antibody binding human iRhom2; HCVD SEQ ID NO 41, LCVD SEQ ID NO 45 (antibody, V domains shown, antibody sequences) VH: QVTLRESGPALVKPTQTLTLTCTFSGFSLSTFGRGVGWIRQPPGKALEWLAHIWWDDEKYYNSALKSRLTISKDTSKNQVVLTITNMDPVDTATYYCARIQNYGSNYWYFDVWGQGTLVTVSS VL: AIQLTQSPSSLSASVGDRVTITCRASSRISYMFWYQQKPGKAPKVLIYDTSNLASGVPSRFSGSGSGTDYTLTISSLQPEDFATYYCQQWNAYPLTFGQGTKLEIK | none of these humanized antibodies of the invention recognizes human iRhom1
4 | 16-B-03: humanized antibody binding human iRhom2; HCVD SEQ ID NO 1, LCVD SEQ ID NO 5 (antibody, V domains shown, antibody sequences) VH: QVTLRESGPALVKPTQTLTLTCTFSGFSLSTFALGVGWIRQPPGKALEWLAHIWWDDDKYYNPALKSRLTISKDTSKNQVVLTITNMDPVDTATYYCARITTYYYGMDYWGQGTLVTVSS VL: EIVMTQSPDFQSVTPKEKVTITCRASQSIGNHLHWYQQKPDASPKLLIKYASQSISGVPSRFSGSGSGTDFTLTINSLEAEDAATYFCQQSYQWPLTFGQGTKLEIK | no significant binding
5 | 16-B-05: humanized antibody binding human iRhom2; HCVD SEQ ID NO 9, LCVD SEQ ID NO 13 (antibody, V domains shown, antibody sequences) VH: QVTLRESGPALVKPTQTLTLTCTFSGFSLSTFALGVGWIRQPPGKALEWLAHIWWDEDKYYNPALKSRLTISKDTSKNQVVLTITNMDPVDTATYYCARITTYYYGMDYWGQGTLVTVSS VL: EIVMTQSPDFQSVTPKEKVTITCRASQSIGNHLHWYQQKPDASPKLLIKYASQSISGVPSRFSGSGSGTDFTLTINSLEAEDAATYFCQQSYNWPLTFGQGTKLEIK | none of these humanized antibodies of the invention recognizes human iRhom1
6 | 16-B-07: humanized antibody binding human iRhom2; HCVD SEQ ID NO 17, LCVD SEQ ID NO 21 (antibody, V domains shown, antibody sequences) VH: QVTLRESGPALVKPTQTLTLTCTFSGFSLSTFALGVGWIRQPPGKALEWLAHIWWDEDKYYNPALKSRLTISKDTSKNQVVLTITNMDPVDTATYYCARITTYYYGMDYWGQGTLVTVSS VL: EIVMTQSPDFQSVTPKEKVTITCRASQSIGNHLHWYQQKPDASPKLLIKYASQSISGVPSRFSGSGSGTDFTLTINSLEAEDAATYFCQQSYQWPLTFGQGTKLEIK | none of these humanized antibodies of the invention recognizes human iRhom1
